In assay [1] the target is SARS-CoV-2 Receptor Binding Domain (RBD) protein (SARS-CoV-2, UniProt P0DTC2 319-541).
Assay [2] addresses T1, SARS-CoV-1 Receptor Binding Domain (RBD) protein (SARS-CoV-1, UniProt P59594 306-527).
T1 construct: also called SARS1
Kind of assay: SPR; clone listed as COV2 only at the 21st table, row 52, column 3. For orientation: In SPR one partner is held on a chip, and binding of the other changes the refractive index at the surface.

For assay [3], the target named is T2, MERS Receptor Binding Domain (RBD) protein (MERS virus, UniProt K9N5Q8 367-606).
T2 construct: also called Middle East Respiratory Syndrome (MERS) virus
T2 sequence: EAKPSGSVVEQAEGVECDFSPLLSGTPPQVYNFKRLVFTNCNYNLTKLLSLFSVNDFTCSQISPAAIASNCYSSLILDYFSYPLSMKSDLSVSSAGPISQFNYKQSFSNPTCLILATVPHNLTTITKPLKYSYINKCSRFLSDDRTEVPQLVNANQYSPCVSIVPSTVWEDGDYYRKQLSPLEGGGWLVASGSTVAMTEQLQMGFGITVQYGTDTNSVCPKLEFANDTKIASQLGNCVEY
Described as above.

Assay [4] concerns the target T1, SARS-CoV-1 Receptor Binding Domain …. Kind of assay: SPR; clone listed as COV2 only at the 21st table, row 45, column 3.
Assay [5] deals with T2, MERS Receptor Binding Domain (RBD) …. The description is as above.
Assay [6] concerns the target T1, SARS-CoV-1 Receptor Binding Domain …. Description: SPR; clone listed as COV2 only at the 21st table, row 51, column 3.
For assay [7], the target named is T2, MERS Receptor Binding Domain (RBD) …. The description is as above.

The values below come from patent US11034762 (CENTIVAX, dated 2021).

B1: COVID19_P22_C09 (scFv, V domains shown)
VH: QVQLVQSGAEVKKPGSSVKVSCKASGYNFTDYHIQWVRQAPGQGLEWVGMIIPRHGGTAYAQRFQGRVTITADESTSTAYMELSSLRSEDTAVYYCAGGSGLTTPMDVWGQGTLVTVSS
VL: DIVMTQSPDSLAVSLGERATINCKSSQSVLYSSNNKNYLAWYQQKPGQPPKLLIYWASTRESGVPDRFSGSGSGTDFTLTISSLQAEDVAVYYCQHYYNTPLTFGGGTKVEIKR
For the molecule B1, in assay [1], binding was characterised by a dissociation constant (Kd) of 32.8 nM; the koff (as a rule, a measure of how fast the partners let go of each other) was found to be 0.0083 s⁻¹; the kon (as a rule, the rate constant with which the complex forms) turned out to be 250000 M⁻¹ s⁻¹. For the same molecule, the binding result in assay [2] was “no binding (tested: up to 300 nM)”. For the same molecule, the binding result in assay [3] is given as “no binding (tested: up to 300 nM)”.

B2: COVID19_P09_D06 (scFv, V domains shown)
VH: QVQLVQSGAEVKKPGSSVKVSCKASGYGFITYWIGWVRQAPGQGLEWMGIIYPGDSETRYAQKFQGRVTITADESTSTAYMELSSLRSEDTAVYYCAGGSGIYVPMDVWGQGTLVTVSS
VL: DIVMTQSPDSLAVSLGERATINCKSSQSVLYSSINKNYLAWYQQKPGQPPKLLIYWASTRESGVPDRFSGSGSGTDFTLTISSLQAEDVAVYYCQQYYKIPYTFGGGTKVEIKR
As for B2, in assay [1], binding was put at a Kd of 16.4 nM, the koff was 0.00538 s⁻¹ and the kon worked out at 328000 M⁻¹ s⁻¹. Besides, the binding result in assay [4] is listed as “no binding (tested: up to 300 nM)”. Besides, in assay [5], the binding result was “no binding (tested: up to 300 nM)”.

B3: COVID19_P21_H01 (scFv, V domains shown)
VH: QVQLVQSGAEVKKPGSSVKVSCKASGYGFSTYWIGWVRQAPGQGLEWMGWINPNSGGTNYAQKFQGRVTITADESTSTAYMELSSLRSEDTAVYYCAGGSGISTPMDVWGQGTLVTVSS
VL: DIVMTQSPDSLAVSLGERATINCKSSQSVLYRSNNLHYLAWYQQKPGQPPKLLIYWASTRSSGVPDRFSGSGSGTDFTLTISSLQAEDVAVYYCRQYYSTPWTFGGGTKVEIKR
Turning to B3, in assay [1], the affinity, expressed as Kd, was 1.38 nM; the koff stood at 0.00022 s⁻¹; the kon amounted to 160000 M⁻¹ s⁻¹. Further, the binding result in assay [6] is “no binding (tested: up to 300 nM)”. In addition, in assay [7], the binding result was “no binding (tested: up to 300 nM)”.
